Consider four molecules from publication PMC5758568, “Cryo EM structure of intact rotary H^+-ATPase/synthase from Thermus thermophilus” (Nature Communications, 2018).

The term stoichiometry N denotes a count of units in the complex or per binding partner.

The labels stand for the following.
B1: D-subunit of the V/A-ATPase from Thermus thermophilus (natural protein, UniProt O87880 1-223, looked up)
chain: MSQVSPTRMNLLQRRGQLRLAQKGVDLLKKKRDALVAEFFGLVREAMEARKALDQAAKEAYAALLLAQAFDGPEVVAGAALGVPPLEGVEAEVENVWGSKVPRLKATFPDGALLSPVGTPAYTLEASRAFRRYAEALIRVANTETRLKKIGEEIKKTTRRVNALEQVVIPGIRAQIRFIQQVLEQREREDTFRLKRIKGKIEAREAEEEGGRPNPQVEIGAGL
notes: V/A-type ATPase D-subunit (central rotor shaft), Thermus thermophilus; native subunit in the isolated whole enzyme; One copy in the enzyme (D1F1d1c12 rotor); also called subunit D; V1-DF (with F)
B2: E-subunit of the V/A-ATPase from Thermus thermophilus (natural protein)
chain: MSKLEAILSQEVEAEIQALLQEAEAKAEAVKREAEEKAKALLQARERALEAQYRAALRRAESAGELLVATARTQARGEVLEEVRRRVREALEALPQKPEWPEVVRKLALEALEALPGAKALVANPEDLPHLEALARERGVELQAEPALRLGVRAVGAEGKTQVENSLLARLDRAWDALSSKVAQALWG
notes: V/A-type ATPase E-subunit (peripheral stalk), Thermus thermophilus; native subunit in the isolated whole enzyme; Two copies in the enzyme (two EG stalks); also called subunit E; EG stalk (with G)
B3: F-subunit of the V/A-ATPase from Thermus thermophilus (natural protein)
chain: MAVIADPETAQGFRLAGLEGYGASSAEEAQSLLETLVERGGYALVAVDEALLPDPERAVERLMRGRDLPVLLPIAGLKEAFQGHDVEGYMRELVRKTIGFDIKL
notes: V/A-type ATPase F-subunit (central rotor), Thermus thermophilus; native subunit in the isolated whole enzyme; One copy in the enzyme; also called subunit F; V1-DF (with D)

Common to all, as to assay: cryo-EM structure; single particle cryo-EM of the whole V/A-ATPase in TE buffer (20 mM Tris-HCl pH 8.0, 0.1 mM EDTA) with 0.003% LMNG and 100 mM NaCl, no nucleotide added; three rotational states (5.0, 6.7, 7.5 Å), focused V1EGd map of state1 4.7 Å; crystal structures and homology models fitted by MDFF
Test [1] deals with c-subunit (subunit L) of the V/A-ATPase from Thermus thermophilus, with His3 tag on the C-terminus (Thermus thermophilus).
Test [2] deals with T1, d-subunit (subunit C) of the V/A-ATPase from Thermus thermophilus (Thermus thermophilus, UniProt P74902 1-323).
T1 construct: native subunit in the isolated whole enzyme; One copy in the enzyme; also called Vo-d
T1 sequence: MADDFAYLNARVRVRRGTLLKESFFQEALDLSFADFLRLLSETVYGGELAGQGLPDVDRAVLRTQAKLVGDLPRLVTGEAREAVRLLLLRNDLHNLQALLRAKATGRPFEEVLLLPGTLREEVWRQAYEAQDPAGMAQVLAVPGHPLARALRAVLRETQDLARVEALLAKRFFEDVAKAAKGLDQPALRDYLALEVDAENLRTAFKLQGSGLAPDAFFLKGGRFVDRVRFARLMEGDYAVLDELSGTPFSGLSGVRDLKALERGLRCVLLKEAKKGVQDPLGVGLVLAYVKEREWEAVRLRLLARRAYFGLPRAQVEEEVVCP
Conditions: both partners purified.

For test [3], the target named is T2, B-subunit of the V/A-ATPase from Thermus thermophilus (Thermus thermophilus, UniProt Q56404 1-478).
T2 construct: V/A-type ATPase B-subunit (V1 part), Thermus thermophilus; native subunit in the isolated whole enzyme; Three copies in the enzyme (A3B3); also called subunit B
T2 sequence (looked up): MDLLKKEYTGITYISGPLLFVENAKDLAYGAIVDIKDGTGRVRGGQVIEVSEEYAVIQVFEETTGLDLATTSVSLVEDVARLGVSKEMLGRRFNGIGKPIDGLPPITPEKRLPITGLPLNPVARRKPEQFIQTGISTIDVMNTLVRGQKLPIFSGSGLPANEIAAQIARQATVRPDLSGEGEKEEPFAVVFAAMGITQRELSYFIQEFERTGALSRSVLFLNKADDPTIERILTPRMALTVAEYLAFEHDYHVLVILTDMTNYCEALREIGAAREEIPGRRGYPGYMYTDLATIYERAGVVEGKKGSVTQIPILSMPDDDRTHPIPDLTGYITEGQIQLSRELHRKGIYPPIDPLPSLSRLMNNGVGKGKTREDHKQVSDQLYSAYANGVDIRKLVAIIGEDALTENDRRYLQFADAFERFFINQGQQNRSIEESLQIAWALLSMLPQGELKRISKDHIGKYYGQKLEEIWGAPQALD
Conditions: both partners purified.

The target in test [4] is B1. Conditions: both partners purified.

On to “c-subunit (subunit L) of the V/A-ATPase from Thermus thermophilus, with His3 tag on the C-terminus (natural protein)”, for which, in test [1], the stoichiometry N came to 12. Regarding B1, the binding result in test [2] is “binds”. Turning to B2, the binding result in test [3] is given as “binds”. In the case of B3, in test [4], the binding result is reported as “binds”.
